The record followed here is patent publication US6521594.

One assay concerns the target αvβ5. Briefly: ELISA. (In general: An ELISA detects its analyte on a solid surface through an enzyme-linked reagent.)
Assay [1] deals with Platelet glycoprotein IIb/IIIa (human) (UniProt P08514). Briefly: ELISA.
Assay [2] concerns the target Vitronectin receptor (human) (UniProt P06756). Briefly: competition, ELISA or liposome assay, vitronectin coated.
Assay [3] deals with Platelet glycoprotein IIb/IIIa (human) (UniProt P08514). Briefly: cell-based or functional assay.

Non-standard residues stand in square brackets, D forms with d. No end group written: not given here. *: point of attachment. Pmc = Cc1c(C)c(S(=O)(=O)*)c(C)c2c1OC(C)(C)CC2; 2Nal = N[C@@H](Cc1ccc2ccccc2c1)C(=O)O; Pen = CC(C)(S)[C@H](N)C(=O)O

In the assay with αvβ5, (Mpr)NPRGD(Y-OMe)RC-NH2 yielded an IC50 of 3 µM. Consider Ac(dPen)IPRGD(O-Me-Tyr)RC-NH2, for which, in assay [1], the 50% inhibitory concentration (IC50) turned out to be 2 nM.

In the assay with αvβ5, Ac-(Pmc)NPRGD(Y-OMe)RC-NH2 came in with a concentration for half-maximal inhibition (IC50) of 2.34 µM. The substance Ac-CNPRGD(Y-OMe)LC-NH2 showed an IC50 with αvβ5 of 7.14 µM.

In assay [2], “G[Pen]GRGDRPCR (cysteine pairing not given here)” gave an IC50 of 10 nM.

In the case of R2(Pen)GRGDTPCA (peptide), in assay [3], the IC50, ADP-Stimulated Aggregation came to 8.2 µM and the IC50, Thrombin Stimulated Aggregation worked out at 2.7 µM. In turn, R(Pmc)G(DY)RGD(Y-OMe)RCR had an IC50 in the assay with αvβ5 of 10 µM. In assay [3], “R(Pmc)GHRGD(O-Me-Tyr)RCR (Table I, row r54) (peptide)” displayed an IC50, ADP-Stimulated Aggregation of 0.44 µM. On to R(Pmc)GHRGD(p-Cl-F)RCR, for which the IC50 with αvβ5 amounted to 15.3 µM. With R(Pmc)GHRGD[2Nal]RCR, in the assay with αvβ5, the IC50 is 10 µM. Compared with the last substance, the IC50 is about 1.5-fold lower. As for R(Pmc)GYRGD(Y-OMe)RCR, the concentration for half-maximal inhibition (IC50) with αvβ5 was 8.8 µM. Substance “analogue 18 (Asp for Gly at position -2 of R(Pmc)GHRGD(Y-OMe)RCR) (peptide)” returned a fold decrease in potency relative to analogue 11 in assay [3] of 4 fold.

As a reminder, the IC50 is the midpoint of a concentration-inhibition curve.
